Test results taken from US20080187554A1, “Process for producing stable HIV Th-CTL peptides” (Wyeth, priority 2005, published 2008).

Assay: Stability by RP-HPLC for peptide quantification
Assay type: physicochemical
Settings: lyophilized, 40° C., six-months time point, all three concentrations (FIGS. 6-8)
From the text: The stability was also monitored for pre-lyophilization formulations. Stability assays basically include appearance (visual inspection), pH, FLS, peptide fluorescence, and RP-HPLC for peptide quantification.

## H-Lys-Gln-Ile-Ile-Asn-Met-Trp-Gln-Glu-Val-Gly-Lys-Ala-Met-Tyr-Ala-Lys-Ala-Phe-Ser-Pro-Glu-Val-Ile-Pro-Met-Phe-OH (H-KQIINMWQEVGKAMYAKAFSPEVIPMF-OH; also: acetate salt) [Peptide A, HIV Th/CTL peptide]
  potency change at accelerated temperature: potency decreases
